Test results: the supplement of paper PMC9170038

System: MS2 coat protein
Assay: apparent KD of MS2 coat protein; designed switch direction (-1 OFF switch, 1 ON switch): 1; higher = weaker reporter binding
In short: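 The apparent KD reported per design is the median over clusters of curve fits to normalised cluster fluorescence. The RNA switches were transcribed on Illumina chips by stalled E. coli RNA polymerase. SNAP-549-labelled MS2 coat protein was titrated from 0.7 or 1.5 nM, doubling up to 3 µM, in Tris-HCl pH 7.5 buffer containing KCl, MgCl2, BSA, DTT, tRNA and Tween-20, with no input, 200 uM small-molecule ligand, or an oligonucleotide input.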

[1] = input ligand: microRNA oligo, concentration not stated
[2] = Eterna round: R95, input ligand: FMN 200 uM
[3] = Eterna round: R95, input ligand: microRNA oligo, concentration not stated
[4] = Eterna round: R95, input ligand: none

Sequence	apparent KD of MS2 coat protein (input ligand: FMN 200 uM)	apparent KD of MS2 coat protein [1]	apparent KD of MS2 coat protein (input ligand: none)	apparent KD of MS2 coat protein [2]	apparent KD of MS2 coat protein [3]	apparent KD of MS2 coat protein [4]
GAGUAGUUGGGAGGAUAUGCAUUGUUAUAGAAUGCAGAAGGUUUUAACAUGAGGAUCACCCAUGUAGGACUAUUCCUGUGUAUC [Parity 71 - Jieux - Same State NG 1] (Eterna round: R96, puzzle: Same State NG 1)	0.0129 µM	0.0119 µM	0.0156 µM	–	–	–
AUCUCUGUGCCGCAGGAUAUACCAACGGCUACAUGAGGAUCACCCAUGUCAUACCGUCGAAAAUGGUAGAAGGGUGUGCACGAGC [Leesmala] (puzzle: Same State 2)	–	–	–	0.0164 µM	0.0455 µM	0.0613 µM
GGAGGACAUGAGGAUCACCCAUGUGGAUGGGCGCUAGGAUAUGCGAGAGGAGGGAGUGGAGCAGAAGGAGUGGGUU [JR_SS1_Sub043] (puzzle: Same State 1)	–	–	–	–	0.0503 µM	–
GGUGCUGUCACAGGAUAUCAUGCGGAAAUCGCGUGAGAAGGGUGGACUCUGUCAUUCACGGAGGACAUGAGGAUCACCCAUGUG [SS NG10LRO20] (Eterna round: R96, puzzle: Same State NG 1)	0.0685 µM	0.00567 µM	0.0202 µM	–	–	–
GGAUCGUCGGCAGGAUAUGAGCAAGUGCAUCGAUCAGAAGGGUCGAGUCCUAGAAGGUAAAGCACAUGAGGAUCACCCAUGUAG [Eternabot solution 39] (Eterna round: R96, puzzle: Same State NG 1)	0.0407 µM	0.0637 µM	0.0963 µM	–	–	–
GCGGAGAGGUAAGGAUAUCCAUGGCAUAGACAUGAGGAUCACCCAUGUAGGAGACGAAUUAGAAGGGAGAAGGUACCGGGACGC [AK SSNG2-V2-19] (Eterna round: R96, puzzle: Same State NG 2)	0.175 µM	0.111 µM	0.168 µM	–	–	–
CUGUGUUGCGGGCAGGAUAUGUAUUGGAGUACAUGAGGAUCACCCAUGUGCGGGUGUUUCACCCGACAGAAGGGCCAAUCGCGAC [JL-ss2-3.22 ViennaUCT mod] (puzzle: Same State 2)	–	–	–	–	0.0767 µM	–
AAAAGACAUGAGGAUCACCCAUGUGAAAACAUACAAGGAUAUGUGUGGAAACCGUACUAUACAGAAGGUGUAUGUC [SS1 - 85] (Eterna round: R96, puzzle: Same State 1)	–	0.0251 µM	–	–	–	–
GAGAGAUGAUUAGGAUAUACGGUGAUAAUGAUAGUAGAAGGAAUUGACAUGAGGAUCACCCAUGUGGGAAUAAUCCAGAGAGAG [Parity 22 - Jieux - Same State NG 1] (Eterna round: R96, puzzle: Same State NG 1)	0.1 µM	0.127 µM	0.162 µM	–	–	–
GUGGUCAGACAUGAGGAUCACCCAUGUGGAAUAAAUAAGGGACAGGAUAUUUAAUAUAGGAUAUAGAAGAAGGGUUGGUUGGUG (Eterna round: R96, puzzle: Same State NG 3)	–	0.0887 µM	–	–	–	–
UCGGGCGUACUUGCUGACAUGAGGAUCACCCAUGUCCUUGGACAGGAUAUGGUUCCGUUUCGGUUCCAGAAGGUCCUGGCUGCU [salish99_SSNG3_r04_320] (Eterna round: R96, puzzle: Same State NG 3)	0.0318 µM	0.0255 µM	0.0409 µM	–	–	–
AUUAAACAUGAGGAUCACCCAUGUCAACAAAGUCGAGGAUAUGGGCAAAUAAAAUUAGAACCAGAAGGCGAAUAAU [salish99_ss1_r3_063] (puzzle: Same State 1)	–	–	–	0.0292 µM	0.167 µM	0.229 µM
UUAAUAAUGUUAGGAUAUACAUGAGGAAUCCUCGUAGAAGGAACAUGACAUGAGGAUCACCCAUGUAGCGCUCCGAAGAGCGCA [Mat - Same State NG 1 - JL mod - D46] (Eterna round: R96, puzzle: Same State NG 1)	0.254 µM	0.115 µM	0.161 µM	–	–	–
GGCCAGAGUCAAGGAUAUGCUACCGUUUCGGUAGCAGAAGGUGAUCACAUGAGGAUCACCCAUGUUUACUGCGAGAGUAUGGCC [JL SSNG1 3.67] (Eterna round: R96, puzzle: Same State NG 1)	0.661 µM	0.197 µM	0.214 µM	–	–	–
UACCUACCAGGAGGAUAUACAAACCCGAAAGGAGUAGAAGGCCUGAGUACUAACAUGAGGAUCACCCAUGUAGCGCCAGUUCGC [Eternabot solution 10] (Eterna round: R96, puzzle: Same State NG 1)	0.0182 µM	0.0151 µM	0.0174 µM	–	–	–
UUACUCAUGUAAGGAUAUGCAGCCGUUUCGGCUGCAGAAGGUACUAUAAUACAUGAGGAUCACCCAUGUCUCUAUUAUUUGGUG [salish99_SSNG1_r04_923] (Eterna round: R96, puzzle: Same State NG 1)	0.111 µM	0.0511 µM	0.0844 µM	–	–	–

Sequence	apparent KD of MS2 coat protein (input ligand: FMN 200 uM)	apparent KD of MS2 coat protein [1]	apparent KD of MS2 coat protein (input ligand: none)	apparent KD of MS2 coat protein [2]	apparent KD of MS2 coat protein [3]	apparent KD of MS2 coat protein [4]
AUUAUUUGUGCAGGAUAUGAUUAACAUGAGGAUCACCCAUGUGGUGUUGUGAGUAAGGAGAGUGAUCAGAAGGGCAUUUUUUUU [JMF's solution 61] (Eterna round: R96, puzzle: Same State NG 2)	0.59 µM	0.476 µM	0.478 µM	–	–	–
UUACUCCCUACAUGAGGAUCACCCAUGUUUUACAAACCCAACGAGGAUAUGUUGAGCGGAUGUAAGCAGAAGGCGUAGGGUAGA [Eternabot solution 37] (Eterna round: R96, puzzle: Same State NG 3)	0.143 µM	0.0167 µM	0.04 µM	–	–	–
CGUAGGUAGCUGGAGGAUAUUCGAGUGGUAACAUGAGGAUCACCCAUGUGGAGUUAGGUACAUGAGGAGAAGGCUAGCUGCCUGC [JL-ss2-3.18 JL mod] (puzzle: Same State 2)	–	–	–	0.0104 µM	0.023 µM	0.0274 µM
GCUCGUACGAUGACCGACAUGAGGAUCACCCAUGUGUGUCGGUAGGAUAUCUAUAUUAAGGAUUUAGAGAAGGGCCCAACGAGC [SameState NG3 #19] (Eterna round: R96, puzzle: Same State NG 3)	0.0633 µM	0.0665 µM	0.082 µM	–	–	–
UUAAUGAUGUAAGGAUAUACAUGAGGAAUUCUCGUAGAAGGUACAUGACAUGAGGAUCACCCAUGUAUCGCUCCGUAGAGCGUA [JL SSNG1 1.12] (Eterna round: R96, puzzle: Same State NG 1)	0.19 µM	0.119 µM	0.0797 µM	–	–	–
ACGUGGAUAUCACAGGAUAUACUCAUAACUACAUGAGGAUCACCCAUGUAGCGGUAUUCCGAUGCGUAGAAGGGUGAUGGACCAC [Same State 2 - Mod of Artece v.2] (puzzle: Same State 2)	–	–	–	0.0139 µM	0.0149 µM	0.0174 µM
AUGGUGCAGGUACAGGAUAUGUUGCUCGUAACAUGAGGAUCACCCAUGUACCUAUGAGAUUAAAUGCAGAAGGGUGCACACCACG [Quorra] (Eterna round: R96, puzzle: Same State 2)	0.0628 µM	0.407 µM	1.26 µM	–	–	–
AUUAUUUAUGCAGGAUAUGAUUAACAUGAGGAUCACCCAUGUGGUGUUGUGAGUAAGGAGAGUGAUCAGAAGGGCAUUUUUGUU [JMF's solution 53] (Eterna round: R96, puzzle: Same State NG 2)	0.992 µM	0.438 µM	0.657 µM	–	–	–
GAAAGCAUGGGAGGAUAUAGCCUCUAUGAAAGGCUAGAAGGCCCUGGCCACAUGAGGAUCACCCAUGUGAAAUAAAUAGAAGAA [Raarceza] (Eterna round: R96, puzzle: Same State NG 1)	0.0289 µM	0.0969 µM	0.218 µM	–	–	–
AAAAAACAUGAGGAUCACCCAUGUCAAAAGACAUGAGGAUAUGUACAGACUUCGGUCUGUACAGAAGGCAUGAAAA [salish99_ss1_r3_093] (puzzle: Same State 1)	–	–	–	0.0322 µM	0.57 µM	0.528 µM
ACUAGAAACGGGCAAUAACACAUGAGGAUCACCCAUGUGACACAGGAUAUAACCAGAUCAGAAAGUUAGAAGGGUGAGCCCGCA [Edraed] (Eterna round: R96, puzzle: Same State NG 3)	0.0132 µM	0.0259 µM	0.035 µM	–	–	–
AAUUAAGAUCUAGGAUAUCACGUCGUUUAGACGUGAGAAGGAGAUCAUAACAUGAGGAUCACCCAUGUAUUACAUGAAUUAAUU [SSNG1/6-B3] (Eterna round: R96, puzzle: Same State NG 1)	0.0242 µM	0.0229 µM	0.0285 µM	–	–	–
AGUCCAGCCUGAGCUGGACAAAAGCAUGUACAUGAGGAUCACCCAUGUCAUGUACAAGUUUUUUGCUCGUCUUAAUA [Zipper 49 - 12] (puzzle: Sensor for hsa-mir-208a)	–	–	–	0.0469 µM	0.0111 µM	0.0531 µM
GCCGGCUGGUGAGGAUAUGGCGCCUUGUUGGUGCCAGAAGGCAUGUCAAUUGACAUGAGGAUCACCCAUGUGUUGUCGUUGGCG [salish99_SSNG1_r04_611] (Eterna round: R96, puzzle: Same State NG 1)	0.808 µM	0.11 µM	0.459 µM	–	–	–
GUGCGGGUAAGAGGAUAUACAAAUUCUCGUUCUGAGACGAGAACAUGAGGAUCACCCAUGUCUAAGUAGAAGGUUUCAGGCACC [Eternabot solution 28] (Eterna round: R96, puzzle: Same State NG 2)	0.0213 µM	0.0182 µM	0.023 µM	–	–	–
